Molecular target: CISNN116 (NT1-C3-hIL21) (UniProt Q9HBE4)
Sequence (Q9HBE4 other isoform, or with tags, fused parts or gaps): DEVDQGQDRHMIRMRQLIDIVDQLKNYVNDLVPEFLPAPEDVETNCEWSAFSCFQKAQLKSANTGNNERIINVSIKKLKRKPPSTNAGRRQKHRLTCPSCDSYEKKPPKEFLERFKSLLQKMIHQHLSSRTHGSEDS

Substance: Caspase 3
- completion of the proteolysis reaction (Maldi analysis), 1 hour at 37° C.: Maldi analysis showed 87% completion of the reaction

From patent US20070141662
